Data as given in patent publication US20110287023A1 (AstraZeneca / MedImmune, published 2011).

What was measured:
[1] = target: T1, recombinant HMG1 produced in E. coli as a calmodulin binding protein (CBP) fusion (human); experiment: cell-based or functional assay
[2] = target: T2, HMG2 coated on ELISA plates (Bos taurus (Bovine), UniProt P40673 2-209); experiment: direct ELISA, HMGB2 coated at 5 ug/mL, antibody at 10 ug/mL, anti-human kappa/lambda-HRP, OD 490
T2 construct: also called HMGB2; HMBG2
T2 sequence: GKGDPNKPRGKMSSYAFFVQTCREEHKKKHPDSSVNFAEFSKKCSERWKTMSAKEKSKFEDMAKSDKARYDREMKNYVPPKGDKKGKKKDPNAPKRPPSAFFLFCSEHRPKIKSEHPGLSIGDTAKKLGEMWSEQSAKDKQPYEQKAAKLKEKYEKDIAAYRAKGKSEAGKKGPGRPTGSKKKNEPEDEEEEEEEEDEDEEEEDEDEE
Protocol: (§1) Binding to HMG1 vs. HMG2: Ultra high-binding ELISA plates (ThermoLab systems, #3855) were coated with either 5 ug/mL of Calf thymus HMGB1 or HMBG2 diluted in 10 mM Phosphate buffered saline (PBS), pH 7.2 and incubate overnight at 4 degrees. The plates were washed twice with Ca and Mg free PBS and 100 microliters of anti-HMGB1 antibody diluted in 10 mM PBS, pH 7.2+1% bovine serum albumin (BSA) to a final concentration of 10 ug/mL was added to each well and the plates were incubated 1 hour at room temperature. The wells were washed three times with 100 μl of PBS, pH 7.2. HRP labeled goat-anti-human IgG Kappa-chain (KPL, #14-10-10) and goat-anti-human IgG Lambda-chain (KPL, #14-10-11) were diluted in 10 mM PBS+1% BSA 1:1000 and 100 μl were added to each well and incubated for 1 hour at room temperature. The wells were then washed three times with 100 μl of PBS, pH 7.2. OPD substrate (Pierce chemical company, #34006) was prepared following the manufacturers instructions and 100 μl of prepared substrate was added to each well and the plates incubated at room temperature in the dark for 20-30 minutes. The reaction was stopped with the addition of 100 μl of 2M H₂SO₄, and the plates read on a plate reader at a wavelength of 490 nm.

[3] = target: T3, HMG1 B Box peptide amino acids 91-169; experiment: ELISA, HMG1 B Box peptide 91-169 coated at 10 ug/ml, antibody titrated, anti-human IgG-HRP, OD 450
T3 construct: also called HMG1 peptide 91-169
T3 peptide: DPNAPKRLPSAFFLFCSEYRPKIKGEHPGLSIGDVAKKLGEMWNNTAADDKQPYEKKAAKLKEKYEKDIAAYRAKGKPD
Protocol: (§2) The plate was then blocked with 4% milk powder dissolved in PBS at 37° C. for 1 hour. The blocking solution was removed and replaced with human anti-HMG1 antibodies at various concentrations (see FIGS. 5A-B). […] HRP activity was detected with Sureblue HRP substrate (KPL). Plates were read at 450 nm using a Kinetic Microplate Reader (Molecular Devices). […] After washing and blocking with 1% BSA in PBS, the biotinylated peptides were individually added into the avidin coated wells and incubated for 30 min at room temperature. The serial diluted antibody G4, S16 and S6 at the initial concentration at 10 μg/ml were then transferred into the wells followed by adding mouse anti human IgG-HRP conjugate (Pierce). Detection was accomplished by adding 50 μl of tetramethylbenzidine (TMB) substrate (KPL) and the absorbance was read at 450 nm.

[4] = target: T4, HMG1 B Box peptide amino acids 150-183; experiment: ELISA, HMG1 B Box peptide 150-183 coated at 10 ug/ml, antibody titrated, anti-human IgG-HRP, OD 450
T4 peptide: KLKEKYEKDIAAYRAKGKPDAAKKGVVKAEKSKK
Protocol: as §2

[5] = target: T5, HMG1 purified from calf (bovine) thymus (bovine, UniProt P10103 2-215); experiment: direct ELISA, calf thymus HMGB1 coated at 5 ug/mL, antibody at 10 ug/mL, anti-human kappa/lambda-HRP, OD 490
T5 construct: also called Calf thymus HMGB1; thymus HMG1
T5 sequence (looked up): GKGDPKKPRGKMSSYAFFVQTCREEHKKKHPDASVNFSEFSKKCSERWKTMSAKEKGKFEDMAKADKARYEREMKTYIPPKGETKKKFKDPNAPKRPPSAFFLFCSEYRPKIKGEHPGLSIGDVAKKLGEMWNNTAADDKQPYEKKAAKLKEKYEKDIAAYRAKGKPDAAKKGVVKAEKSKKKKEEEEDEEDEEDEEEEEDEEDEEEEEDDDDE
Protocol: as §1

[6] = target: T6, mouse RAGE/Fc fusion protein (mouse, UniProt Q62151 24-342, limits assumed); experiment: ELISA (right panel): RAGE-Fc immobilized, HMGB1 titrated in the presence of 0.03 µM CpG-A
T6 construct: not shown: Fc part, not described
T6 sequence (Q62151 24-342 limits assumed): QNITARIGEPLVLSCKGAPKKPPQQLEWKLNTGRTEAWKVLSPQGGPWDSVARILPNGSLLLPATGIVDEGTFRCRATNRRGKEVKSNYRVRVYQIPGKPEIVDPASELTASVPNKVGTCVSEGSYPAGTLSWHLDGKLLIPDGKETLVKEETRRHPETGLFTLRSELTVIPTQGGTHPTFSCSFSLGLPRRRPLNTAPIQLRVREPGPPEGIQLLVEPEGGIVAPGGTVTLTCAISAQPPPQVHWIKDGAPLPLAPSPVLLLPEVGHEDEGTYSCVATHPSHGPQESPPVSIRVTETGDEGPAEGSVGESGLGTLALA

[7] = target: T7, HMGB1 in human brain tissue of multiple sclerosis plaques (human, UniProt P09429 1-215); experiment: staining of human brain tissue
T7 construct: whole, on cells; tissue staining; also called HMGB1 in MS plaques
T7 sequence (looked up): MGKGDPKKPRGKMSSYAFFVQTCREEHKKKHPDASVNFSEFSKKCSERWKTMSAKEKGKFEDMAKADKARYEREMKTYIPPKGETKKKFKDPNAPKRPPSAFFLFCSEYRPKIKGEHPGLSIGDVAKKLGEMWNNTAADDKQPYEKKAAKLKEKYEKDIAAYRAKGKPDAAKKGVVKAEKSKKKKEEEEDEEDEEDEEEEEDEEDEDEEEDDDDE

[8] = target: T1, recombinant HMG1 produced in E. coli as …; experiment: BIAcore 3000, mAb amine-coupled to CM5, HMG1 injected, steady-state model
Protocol: HMG1 Binding Affinity via BIAcore Analysis: All experiments were performed on a BIAcore 3000 instrument (BIAcore, Inc., Piscataway, N.J.). Briefly, each mAb was immobilized to a CM5 sensor chip using a standard amine coupling chemistry. Separately a reference (control) flow cell was also prepared. Two-fold, serial dilutions of HMG1 in instrument buffer were sequentially injected at a slow flow rate over the individual mAb and reference flow-cell surfaces. Following the binding and dissociation of HMG1, the mAbs surfaces were regenerated with a brief pulse of 1M NaCl-50 mM NaOH. At the end of each experiment, the binding curves were evaluated using a steady-state model available through the BIAevaluation software supplied by BIAcore, Inc. (Piscataway, N.J.).

[9] = target: T3, HMG1 B Box peptide amino acids 91-169; experiment: ELISA, HMG1 B Box peptide 91-169 coated at 10 ug/ml, antibody titrated, OD 450
Protocol: as §2

[10] = target: T4, HMG1 B Box peptide amino acids 150-183; experiment: ELISA, HMG1 B Box peptide 150-183 coated at 10 ug/ml, antibody titrated, OD 450
Protocol: as §2

B1: human anti-HMG1 antibody S12 (antibody, IgG1, V domains shown)
VH: EVQLLESGGGLVQPGGSLRLSCAASGFTFSKYIMHWVRQAPGKGLEWVSGIVPSGGLTEYADSVKGRFTISRDNSKNTLYLQMNSLRAEDTATYYCAKEIFGQFDYWGQGTLVTVSS
VL: AQSALTQPPSVSAAPRQRVTISCSGSTSNIGNNAVTWYQYFPGKAPKLLIYSDNQRPSGVPDRFSGSKSGTSASLAITGLQAEDEADYYCQSYDRGLSVVFGGGTKLTVL
notes: full length IgG1 made from a human Fab phage clone
IC50 IL-6 [1]: 1.67 nM | binding result [2]: binds | binding result [3]: binds | binding result [4]: binds | binding result [5]: binds

B2: complex of thymus HMGB1 with CpG-A DNA (other, bovine, UniProt P10103 2-215, looked up)
chain: GKGDPKKPRGKMSSYAFFVQTCREEHKKKHPDASVNFSEFSKKCSERWKTMSAKEKGKFEDMAKADKARYEREMKTYIPPKGETKKKFKDPNAPKRPPSAFFLFCSEYRPKIKGEHPGLSIGDVAKKLGEMWNNTAADDKQPYEKKAAKLKEKYEKDIAAYRAKGKPDAAKKGVVKAEKSKKKKEEEEDEEDEEDEEEEEDEEDEEEEEDDDDE
notes: also called HMGB1/CpG complex; HMGB1/CpG A complex
EC50 (read off the curve) [6]: ~100 nM

B3: human anti-HMG1 antibody G16 (antibody, IgG1, V domains shown)
VH: EVQLLESGGGLVQPGGSLRLSCAASGFTFSWYKMTWVRQAPGKGLEWVSSISPSGGFTSYADSVKGRFTISRDNSKNTLYLQMNSLRAEDTAVYYCARDLDIRHAFDIWGQGTMVTVSS
VL: DIQMTQSPGTLSLSPGESGTLSCRASESVSSRHFAWYQQKPGQAPRLLIYGASSRPTGIPDRFSGSGSGTDFTLTLSRLEPEDFAVYFCQYYGSSPYTFGGGTKVEMK
notes: as for B1
IC50 IL-6 [1]: 1.06 nM | IC50 NO [1]: 22 µg/mL | binding result [7]: binds | Kd [8]: 22 nM | binding result [9]: no binding (tested: 10 ug/ml (log 1.0)) | binding result [10]: no binding (tested: 10 ug/ml (log 1.0))
